One substance from paper PMC3099244 can be followed below.

This assay addresses TAP-tagged wild-type Dyn1-GFP (cytoplasmic dynein heavy chain) (S. cerevisiae) (UniProt P36022). In words: single-molecule stepwise photobleaching.

With “TAP-tagged wild-type Dyn1-GFP (cytoplasmic dynein heavy chain), P36022 1-4092”, the stoichiometry N (commonly the number of molecules, sites or subunits per partner or assembly) worked out at 2.
